Sequences and labels used below:
T1: hCEACAM5 A3-B3 domain (human, UniProt P06731 501-685, limits assumed)
T1 sequence: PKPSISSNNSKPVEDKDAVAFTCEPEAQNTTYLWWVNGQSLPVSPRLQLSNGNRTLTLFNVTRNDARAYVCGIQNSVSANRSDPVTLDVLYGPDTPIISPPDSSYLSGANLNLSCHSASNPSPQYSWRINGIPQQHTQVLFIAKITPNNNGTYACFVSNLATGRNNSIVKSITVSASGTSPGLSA

T2: Human CEACAM6 (human, UniProt P40199 35-320, limits assumed)
T2 sequence (looked up): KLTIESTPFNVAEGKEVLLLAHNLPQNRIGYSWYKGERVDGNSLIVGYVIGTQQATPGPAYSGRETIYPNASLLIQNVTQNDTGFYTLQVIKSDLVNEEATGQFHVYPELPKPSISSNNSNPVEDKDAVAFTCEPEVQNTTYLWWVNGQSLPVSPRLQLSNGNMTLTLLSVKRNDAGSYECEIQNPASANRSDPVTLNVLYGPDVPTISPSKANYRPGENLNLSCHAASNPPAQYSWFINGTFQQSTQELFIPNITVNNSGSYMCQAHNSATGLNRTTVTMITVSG

T3: soluble mouse Fc-human NKG2D dimer (human, UniProt P26718 78-216, limits assumed)
T3 construct: also called NKG2D-mFc; human NKG2D fused to a mouse Fc
T3 sequence (looked up): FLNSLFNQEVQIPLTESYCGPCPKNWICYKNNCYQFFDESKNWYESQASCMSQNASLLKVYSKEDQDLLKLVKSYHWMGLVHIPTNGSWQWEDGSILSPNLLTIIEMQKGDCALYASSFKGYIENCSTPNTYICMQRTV

T4: Cyno NKG2D-mFc (cynomolgus monkey, UniProt P61252 78-216, limits assumed)
T4 construct: also called cynomolgus NKG2D fused to a mouse Fc
T4 sequence (looked up): T3 sequence (looked up) with D38N, T128I

T5: Human CEACAM5 (E398) (human, UniProt P06731 35-685, limits assumed)
T5 construct: also called hCEACAM5
T5 sequence: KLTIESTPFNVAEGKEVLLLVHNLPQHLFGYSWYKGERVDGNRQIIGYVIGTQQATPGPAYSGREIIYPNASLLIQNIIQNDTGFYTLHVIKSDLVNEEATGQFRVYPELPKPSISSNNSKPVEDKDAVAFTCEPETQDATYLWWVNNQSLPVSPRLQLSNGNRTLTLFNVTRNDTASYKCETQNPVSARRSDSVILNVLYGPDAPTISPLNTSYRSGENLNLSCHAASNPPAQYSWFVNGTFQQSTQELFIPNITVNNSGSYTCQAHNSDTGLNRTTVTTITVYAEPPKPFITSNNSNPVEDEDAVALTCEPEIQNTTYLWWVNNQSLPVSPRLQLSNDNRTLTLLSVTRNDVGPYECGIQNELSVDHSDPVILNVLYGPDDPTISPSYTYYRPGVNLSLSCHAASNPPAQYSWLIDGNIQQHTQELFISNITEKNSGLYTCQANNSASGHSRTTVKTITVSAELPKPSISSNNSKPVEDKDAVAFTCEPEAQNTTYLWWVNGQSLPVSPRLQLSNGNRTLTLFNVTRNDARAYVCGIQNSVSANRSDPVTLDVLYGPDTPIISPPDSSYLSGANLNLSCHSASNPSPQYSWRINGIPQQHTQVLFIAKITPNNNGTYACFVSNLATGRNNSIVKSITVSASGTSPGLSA

B1: AB0466 F3' CEACAM5 TriNKET (bispecific antibody, human IgG1, kappa)
chain: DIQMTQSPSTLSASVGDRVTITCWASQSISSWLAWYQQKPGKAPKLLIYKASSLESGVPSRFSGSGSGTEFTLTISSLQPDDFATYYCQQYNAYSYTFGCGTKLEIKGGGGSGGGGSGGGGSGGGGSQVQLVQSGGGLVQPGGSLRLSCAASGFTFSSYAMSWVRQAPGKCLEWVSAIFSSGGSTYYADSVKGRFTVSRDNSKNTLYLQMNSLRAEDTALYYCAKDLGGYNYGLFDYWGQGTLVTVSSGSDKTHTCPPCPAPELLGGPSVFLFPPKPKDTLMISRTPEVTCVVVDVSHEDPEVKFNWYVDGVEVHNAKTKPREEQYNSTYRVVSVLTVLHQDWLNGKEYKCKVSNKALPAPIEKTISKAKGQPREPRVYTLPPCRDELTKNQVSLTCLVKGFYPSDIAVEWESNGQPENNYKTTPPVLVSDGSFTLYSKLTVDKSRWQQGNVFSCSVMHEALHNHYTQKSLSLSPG
heavy: EVQLVESGGGLVKPGGSLRLSCAASGFTFSSYSMNWVRQAPGKGLEWVSSISSSSSYIYYADSVKGRFTISRDNAKNSLYLQMNSLRAEDTAVYYCARGAPIGAAAGWFDPWGQGTLVTVSSASTKGPSVFPLAPSSKSTSGGTAALGCLVKDYFPEPVTVSWNSGALTSGVHTFPAVLQSSGLYSLSSVVTVPSSSLGTQTYICNVNHKPSNTKVDKKVEPKSCDKTHTCPPCPAPELLGGPSVFLFPPKPKDTLMISRTPEVTCVVVDVSHEDPEVKFNWYVDGVEVHNAKTKPREEQYNSTYRVVSVLTVLHQDWLNGKEYKCKVSNKALPAPIEKTISKAKGQPREPQVCTLPPSRDELTENQVSLTCLVKGFYPSDIAVEWESNGQPENNYKTTPPVLDSDGSFFLYSWLTVDKSRWQQGNVFSCSVMHEALHNHYTQKSLSLSPG
light: DIQMTQSPSSVSASVGDRVTITCRASQGISSWLAWYQQKPGKAPKLLIYAASSLQSGVPSRFSGSGSGTDFTLTISSLQPEDFATYYCQQGVSFPRTFGGGTKVEIKRTVAAPSVFIFPPSDEQLKSGTASVVCLLNNFYPREAKVQWKVDNALQSGNSQESVTEQDSKDSTYSLSSTLTLSKADYEKHKVYACEVTHQGLSSPVTKSFNRGEC
B2: AB0621 F3' CEACAM5 TriNKET (bispecific antibody, human IgG1, kappa)
chain: DIVMTQSPDSLAVSLGERATINCKSSHSLLYGNFQNNYLAWYQQKPGQPPKLLIYWASTRESGVPDRFSGSGSGTDFTLTISSLQAEDVAVYYCQQYYSYPYTFGCGTKLEIKGGGGSGGGGSGGGGSGGGGSQVQLVQSGAEVKKPGASVKVSCKASGYTFTAYTIHWVRQAPGQCLEWMGYINPSSGYTEYNQKFKDRTTLTADTSISTAYMELSRLRSDDTAVYYCTREGGLLWFDYWGQGTLVTVSSGSDKTHTCPPCPAPELLGGPSVFLFPPKPKDTLMISRTPEVTCVVVDVSHEDPEVKFNWYVDGVEVHNAKTKPREEQYNSTYRVVSVLTVLHQDWLNGKEYKCKVSNKALPAPIEKTISKAKGQPREPRVYTLPPCRDELTKNQVSLTCLVKGFYPSDIAVEWESNGQPENNYKTTPPVLVSDGSFTLYSKLTVDKSRWQQGNVFSCSVMHEALHNHYTQKSLSLSPG
heavy: B1 heavy
light: B1 light
B3: AB0411 F3' CEACAM5 TriNKET (bispecific antibody, human IgG1, kappa)
chain: DIQLTQSPATLSVSPGERATLSCRASQSVSSSYLAWYQQKPGQAPRLLIYGASSRATGIPDRFSGSGSGTDFTLTISRLEPEDFAVYYCQQYNNWPLTFGCGTKVEIKGGGGSGGGGSGGGGSGGGGSQVQLVQSGGGLVQPGGSLRLSCAASGFTFTSYAMSWVRQAPGKCLEWVSAISGTGDSTFYADSVKGRFTFSRDNSKNTLYLQMNSLRAEDTAVYYCAKDLGWLQYGLFDYWGQGTLVTVSSGSDKTHTCPPCPAPELLGGPSVFLFPPKPKDTLMISRTPEVTCVVVDVSHEDPEVKFNWYVDGVEVHNAKTKPREEQYNSTYRVVSVLTVLHQDWLNGKEYKCKVSNKALPAPIEKTISKAKGQPREPRVYTLPPCRDELTKNQVSLTCLVKGFYPSDIAVEWESNGQPENNYKTTPPVLVSDGSFTLYSKLTVDKSRWQQGNVFSCSVMHEALHNHYTQKSLSLSPG
heavy: B1 heavy
light: B1 light
B4: AB0264 F3' CEACAM5 TriNKET (bispecific antibody, human IgG1, kappa)
chain: B2 chain with S210P
heavy: B1 heavy
light: B1 light

Numbering of substitutions follows the chain as printed.

The first assay concerns the target T1, hCEACAM5 A3-B3 domain. Nature of the assay: SPR with hCEACAM5 domains. As for the experimental part:
If the protein domain was an Fc fusion, AB0411, AB0466, AB0264, or AB0621 were captured using an anti-human Fab antibody (Cytiva, #28958325) immobilized onto a CM5 chip. The various hCEACAM5 protein domains (N-term, A1-B1, A2, B2, A3, or B3) were titrated over the captured TriNKETs at 50 μL/min for 180 sec of association and 300 sec of dissociation. The assay was run at 25° C. in HBS-EP+ running buffer, pH 7.4. The surface of the CM5 chip was regenerated using […] glycine pH 2.1.
The various hCEACAM5 protein domains were titrated over the captured antibody at 50 μL/min for 180 sec of association and 300 sec of dissociation. The assay was run at 37° C. in HBS-EP+ running buffer, pH 7.4. The surface of the CM5 chip was regenerated using 3M MgCl₂.
In the case of B1, the binding result is given as “no binding”.

Consider B2, for which the binding result is “no binding”.

Regarding B3, the binding result is on record as “no binding”.

As for B4, the binding result is “no binding”.

The next assay concerns the target T2, Human CEACAM6. Nature of the assay: SPR, 37C, pH 7.4. As for the experimental part:
(§1) To determine the affinity and cross-reactivity of CEACAM5 TriNKET molecules, AB0411, AB0466, or AB0621 TriNKETs were captured using an anti-human Fc capture antibody (Cytiva, #BR100839) immobilized onto a Biacore CM5 standard surface sensor chip following manufacturer instructions. Human or cynomolgus CEACAM5 were titrated over captured AB0411, AB0466, and AB0621 as 2-fold serial dilutions starting from 300 nM. Association was monitored for 300 sec and dissociation was monitored for 600 sec. The assay was run at 37° C. at pH 7.4 and 6.0. The surface of the CM5 chip was regenerated with 10 mM glycine pH 1.5 for 20 sec at 100 μL/min.
Binding to human and cynomolgus CEACAM1, 6, and 8 was assessed by SPR using the same protocol as for CEACAM5 but using up to 600 and 1200 nM for titration of each protein. There were no detectable binding signals at these concentrations for AB0621. In contrast, reproducible weak binding signals were detected for AB0411 and AB0466, but these two TriNKETs also bound to different epitope(s) on the N-terminus of CEACAM5. Typical weak binding sensorgrams for AB0411 and AB0466 against human CEACAM1 and 6 indicated weak but notable signals compared to AB0621. […]
Regarding B1, the binding result is “no binding (tested: up to 600 and 1200 nM)”.

For the molecule B2, the binding result is “no binding (tested: up to 600 and 1200 nM)”.

On to B4, for which the binding result was “no binding (tested: up to 600 and 1200 nM)”.

A further assay concerns the target T3, soluble mouse Fc-human NKG2D dimer. Nature of the assay: SPR, NKG2D-mFc captured, 37C, pH 7.4. As for the experimental part:
(§2) Binding to NKG2D was assessed by SPR using a mouse Fc capture kit (Cytiva, #BR100838) immobilized onto a CM5 chip. Human and cynomolgus NKG2D fused to a mouse Fc were captured and AB0411, AB0466, or AB0621 was titrated from 600 nM.
Background: Surface plasmon resonance follows binding to a sensor surface in real time, without labels.
With B1, the Kd (as a rule, the concentration at which binding is half-saturated) came to 680 nM; the koff (commonly the rate constant with which the complex falls apart) turned out to be 0.16 s⁻¹; the kon (commonly the rate constant with which the complex forms) was 240000 M⁻¹ s⁻¹.

The molecule B2 displayed a Kd of 570 nM, a koff of 0.14 s⁻¹ and a kon of 320000 M⁻¹ s⁻¹.

B3 displayed a Kd of 490 nM, a koff of 0.12 s⁻¹ and a kon of 250000 M⁻¹ s⁻¹.

In another assay the target is T4, Cyno NKG2D-mFc. The assay is described as follows: SPR, NKG2D-mFc captured, 37C, pH 7.4. As for the experimental part:
as §2
In the case of B1, the Kd was 750 nM, the koff worked out at 0.18 s⁻¹ and the kon came out at 230000 M⁻¹ s⁻¹.

Regarding B2, the equilibrium dissociation constant (Kd) was 520 nM, the koff was 0.12 s⁻¹ and the kon was determined as 320000 M⁻¹ s⁻¹.

Take B3: the Kd worked out at 590 nM, the koff amounted to 0.15 s⁻¹ and the kon turned out to be 260000 M⁻¹ s⁻¹.

A further assay has as its target T5, Human CEACAM5 (E398). Nature of the assay: SPR, anti-hFc capture, 37C, pH 6.0. As for the experimental part:
as §1
B1: binding was characterised by a dissociation constant (Kd) of 15 nM and the kon stood at 160000 M⁻¹ s⁻¹.

B2 yielded a Kd of 14 nM and a kon of 140000 M⁻¹ s⁻¹.

Molecule B3 registered a Kd of 1.9 nM and a kon of 310000 M⁻¹ s⁻¹.

The values above are taken from patent US20240124607A1 (Merck Sharp & Dohme, published 2024).
